The results in this text go back to US20140296307, “POTENT ANALOGUES OF THE C-MYC INHIBITOR 10074-G5 WITH IMPROVED CELL PERMEABILITY” (University of Maryland, Baltimore, published 2014).

Data set [1] deals with Max(L) homodimer (UniProt P61244 P61244:2-160). Kind of data set: EMSA; 60 nM Max(L), 20 nM DNA; same buffer; 3jc48-3 compound IC50 60.6 uM. The settings on record: tags: His6; chain copies: 2 (stated homodimer); label: 5'-hexachlorofluorescein. As for the experimental part: (§1) EMSAs. These were performed essentially as described previously (23). Briefly, Ni⁺-agarose-purified His₆-tagged c-Myc bHLH-ZIP domain (residues 353-437) was used for all binding assays as was the His₆-tagged 151 residue isoform of Max, otherwise referred to as Max(S) (residues 2-151) (21). For each binding reaction, the proteins were allowed to heterodimerize at a concentration of 30 nM each in the presence of 20 nM of a 5′-HEX-tagged double-stranded 22-base pair oligonucleotide 5′-hexachlorofluoresceine-[…]-3′ (SEQ ID NO: 1) containing a consensus c-Myc binding site (CACGTG) and the indicated concentration of small molecule inhibitor. Control reactions contained the same oligonucleotide in the presence of 60 nM of the 160 residue isoform of Max referred to as Max(L) (21). All binding reactions were prepared in a buffer consisting of PBS (pH 7.3), 1 mmol/L EDTA, 0.1% NP40, 5% glycerol, 1 mmol/L DTT, and 0.4 mg/mL bovine serum albumin. Electrophoresis was performed on 8% polyacrylamide/bisacrylamide (80:1) gels in […] (23). Each reaction was run on at least three separate occasions.

The target of data set [2] is c-Myc bHLH-ZIP/Max(S) heterodimer (UniProt P01106-1;P61244-2 P01106-1:353-437,P61244-2:2-151). Kind of data set: EMSA; 30 nM each protein, 20 nM DNA; PBS pH 7.3, 1 mM EDTA, 0.1% NP40, 5% glycerol, 1 mM DTT, 0.4 mg/mL BSA; binding disrupted by 3jc48-3 (compound IC50 34.8 uM). Particulars: tags: His6 (Myc His6-TEV tag from pET151, removed by TEV in one protocol), label: 5'-hexachlorofluorescein. How it is done:
as §1

Chain of c-Myc bHLH-ZIP/Max(S) heterodimer (P01106 368-452, chain 1 of 2): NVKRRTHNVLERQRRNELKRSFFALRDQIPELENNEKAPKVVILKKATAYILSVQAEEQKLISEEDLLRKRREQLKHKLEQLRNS
Chain of c-Myc bHLH-ZIP/Max(S) heterodimer (P61244 other isoform, or with tags, fused parts or gaps, chain 2 of 2): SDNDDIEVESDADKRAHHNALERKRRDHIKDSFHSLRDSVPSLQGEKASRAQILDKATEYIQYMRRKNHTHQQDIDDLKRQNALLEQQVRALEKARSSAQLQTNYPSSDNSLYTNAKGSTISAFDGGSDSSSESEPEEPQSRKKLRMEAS
Chain of Max(L) homodimer (P61244 2-160, one chain of several): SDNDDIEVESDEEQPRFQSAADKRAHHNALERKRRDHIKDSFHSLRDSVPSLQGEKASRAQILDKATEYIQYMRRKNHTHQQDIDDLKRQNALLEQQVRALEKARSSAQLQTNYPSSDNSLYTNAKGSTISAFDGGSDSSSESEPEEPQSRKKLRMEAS

B1: E-box 22-bp HEX oligonucleotide (dsDNA)
DNA 1: CACCCGGTCACGTGGCCTACAC
DNA 2: GTGTAGGCCACGTGACCGGGTG
B1: the binding result in data set [1] and in data set [2] was “binds” each time.
